For this test, the target named is Interleukin-1 receptor 1 on human umbilical vein endothelial cells (human (endogenous in HUVEC)) (UniProt P14778).
Sequence of UniProt P14778 (P14778 18-569): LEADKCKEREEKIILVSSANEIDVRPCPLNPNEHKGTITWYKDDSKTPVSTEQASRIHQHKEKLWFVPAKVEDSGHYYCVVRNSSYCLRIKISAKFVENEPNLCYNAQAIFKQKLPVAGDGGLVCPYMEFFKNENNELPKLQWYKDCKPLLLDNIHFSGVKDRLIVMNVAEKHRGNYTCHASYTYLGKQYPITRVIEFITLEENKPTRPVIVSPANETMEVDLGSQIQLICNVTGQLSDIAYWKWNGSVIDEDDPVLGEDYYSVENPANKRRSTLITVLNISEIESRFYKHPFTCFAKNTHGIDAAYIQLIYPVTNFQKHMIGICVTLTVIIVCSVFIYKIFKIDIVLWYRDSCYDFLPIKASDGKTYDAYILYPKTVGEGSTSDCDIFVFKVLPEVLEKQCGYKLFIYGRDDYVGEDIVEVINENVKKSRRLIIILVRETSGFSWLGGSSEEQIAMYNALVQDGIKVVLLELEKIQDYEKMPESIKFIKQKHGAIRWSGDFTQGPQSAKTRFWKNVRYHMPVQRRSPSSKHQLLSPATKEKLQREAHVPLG

For the substance “cell-surface Interleukin-1α on human primary monocytes (from UniProt P01583 113-271) (ligand)”, the percent VCAM1-positive HUVECs (flow cytometry) after 4h with unstimulated monocytes (% VCAM pos. cells) was 2.5; the percent VCAM1-positive HUVECs (flow cytometry) after 4h with upLPS-stimulated monocytes (% VCAM pos. cells) came to 25.9; the percent VCAM1-positive HUVECs (flow cytometry) after 4h with upLPS-stimulated monocytes, HUVECs pre-treated 1h with neutralizing IL1R1 antibody (10 µg/ml, AB-269-NA, R&D Systems) (% VCAM1 pos. cells) amounted to 18.6; the percent adhesion of calcein-labeled, LPS-pre-stimulated monocytes to HUVECs (remaining fluorescence after washing) is 6.7%. Further, the percent adhesion of calcein-labeled, non-stimulated monocytes to HUVECs (remaining fluorescence after washing) is 3.5%.

These data come from PMC10494239.
